{"source": "the nanobody polyreactivity screen of Harvey et al. (2022)", "data": [{"test": "yeast display, Sf9 membrane polyspecificity reagent, FACS + sequencing; frameworks hold sequencing errors", "in_short": "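Genes from sorted yeast were amplified by colony PCR, read by MiSeq 2 × 250 sequencing and filtered on CDR length. These cells carried a synthetic nanobody library in Saccharomyces cerevisiae BJ5465 and were sorted by FACS into low and high (top ~1%) gates on anti-HA and streptavidin fluorescence. Polyreactivity is labelled according to the gate of origin.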", "values": [{"sequence": "QVQLVESGGGLVQAGGSLRLSCAASGSTFGGYAMGWYRLAPGKERELVAAISSSGTSTYYADSVKGRFTISRDNAKNTVYLQMNSLKPEDTAVYYCATDFSFFSRFDYWGQGTQVTVSS", "polyreactivity (PSR sort gate)": "low polyreactivity"}, {"sequence": "QVQLVESGGGLVQAGGSLRLSCAASGSTFGGYAMGWYRQAPGKERELVASISGGTRTNYADSVKGRFTISRDNAKNSVYLQMNSLKPEDTAVYYCAAEVGLPTWYTLPVDDYDYWGQGTQVTVSS", "polyreactivity (PSR sort gate)": "low polyreactivity"}, {"sequence": "QVQLVESGGGLVQAGGSLRLSCAASGSTFGGYAMGWYRQAPGKERELVASISGGTRTNYADSVKGRFTISRDNAKNTVYLQMNSLKPEDTAVYYCAAEVGLPTWYTLPVDDYDYWGQGTQVTVSS", "polyreactivity (PSR sort gate)": "low polyreactivity"}, {"sequence": "QVQLVESGGGLVQAGGSLRLSCAASGSTFGHNAMGWYRQAPGKERELVAAIDSGDGTTYADSVKGRFTISRDNAKNTVYFQMNSLKPEDTAVYYCAATTDRAEDDDNIGGYWGQGTQVTVSS", "polyreactivity (PSR sort gate)": "low polyreactivity"}, {"sequence": "QVQLVESGGGLVQAGGSLRLSCAASGSTFGHYTMGWYRQAPGKERELVAAITYSGGRTYYADSVKGRFTISRDNAKNTVYLQMNSLKPEDTAVYYCNAKSFRILDNFAYRVDYDYWGQGTQVTVSS", "polyreactivity (PSR sort gate)": "low polyreactivity"}, {"sequence": "QVQLVESGGGLVQAGGSLRLSCAASGSTFGINAMGWSRQAPGKERELVAAINSGTRTYYADSVKGRFTISRDNAKNNVYLQMNSLKPEDTAVYYCAARGVVGASGYYYWGQGTQVTVSS", "polyreactivity (PSR sort gate)": "high polyreactivity"}, {"sequence": "QVQLVESGGGLVQAGGSLRLSCAASGSTFGINDMGRYRQAPGKERELVASITRRGGTTYYADSVKGRFTISRDNAKNTVYLHMNSLKPEDTAVYYCNKTYRYGTPLYDYWGQGTQVTVSS", "polyreactivity (PSR sort gate)": "high polyreactivity"}, {"sequence": "QVQLVESGGGLVQAGGSLRLSCAASGSTFGIYAMGWYRPAPGKDREMVAAISSGVDTYYADSVKGRVTISRDNAKNTVDIQMNSLKPEDPAVYYCAADQFQGNSGFEYWGQGTQVTVSS", "polyreactivity (PSR sort gate)": "low polyreactivity"}, {"sequence": "QVQLVESGGGLVQAGGSLRLSCAASGSTFGIYAMGWYRQAPGKERELVAAISSGGSTNYADSVKGRFTISRDNAKNTVYLQMNSLKPEDTAVYYCAVESVYEYGGYVDSAYDYWGQGTQLTVSS", "polyreactivity (PSR sort gate)": "low polyreactivity"}, {"sequence": "QVQLVESGGGLVQAGGSLRLSCAASGSTFGIYAMGWYRQAPGKERELVAAITWRGSSTYYADSVKGRFTISRDNAKNTVYLQMNSLKPEDTAVYYCAAEDTFYEYYSWGQGTQVTVSS", "polyreactivity (PSR sort gate)": "high polyreactivity"}, {"sequence": "QVQLVESGGGLVQAGGSLRLSCAASGSTFGIYAMGWYRQAPGKERELVATITGRGGRTYYADSVKGRFTISRDNAKNTVYLQMNSLKQEDTAVYYCNAAYRGYYRYDYWGQGTQVTVSS", "polyreactivity (PSR sort gate)": "high polyreactivity"}, {"sequence": "QVQLVESGGGLVQAGGSLRLSCAASGSTFGKYAMGWYRPAPGKERELVAAITNGGRTNYADSVKGRFTISRDNAMNTVYLQMNSLKPEDTAVYYCNKARYGTDDYDYWGQGTQVTVSS", "polyreactivity (PSR sort gate)": "low polyreactivity"}, {"sequence": "QVQLVESGGGLVQAGGSLRLSCAASGSTFGKYAMGWYRQAPGKEREFVAAITWSGGRTYYADSVKGRFTISRDNAKNTVYLQMNSLKPEDTAVDYCAALWAYYSRGYYWGQGTQVTVSW", "polyreactivity (PSR sort gate)": "high polyreactivity"}, {"sequence": "QVQLVESGGGLVQAGGSLRLSCAASGSTFGKYAMGWYRQAPGKERELVAAITNGGRTNFADSVKGRFTISRDNAKNTVYLQMNSLKPEDTAVYFCNKARYGTDDYEYWGQGTQVTVSS", "polyreactivity (PSR sort gate)": "low polyreactivity"}, {"sequence": "QVQLVESGGGLVQAGGSLRLSCAASGSTFGLYAMGWYRQAPGKERELVAAIRWSGASTYYADSVKGRFTISRDNAKNTVYLQMNSLKPEDTAVYYCARRALGPRRGIRYDYWGQGTQVTVSS", "polyreactivity (PSR sort gate)": "high polyreactivity"}, {"sequence": "QVQLVESGGGLVQAGGSLRLSCAASGSTFGPNAMGWYRQAPGKERELVATISFRGGTTYYADSVKGRFTISRDNAKNTVYLQMNSLKPEDTAVYYCAVKVGYVRLLYHYYYWGQGTQVTVSS", "polyreactivity (PSR sort gate)": "high polyreactivity"}, {"sequence": "QVQLVESGGGLVQAGGSLRLSCAASGSTFGPNAMGWYRQAPGKERELVATISSGGSTYYADSVKGRFTISRDNAKNTVYLQMNSLKPEDTAVYYCNVLWLRSRRKYDYWGHGTQVTVSS", "polyreactivity (PSR sort gate)": "low polyreactivity"}, {"sequence": "QVQLVESGGGLVQAGGSLRLSCAASGSTFGPYAMGWYRPAPGKEMELVATITRNGGSTYYADSVKGRFTISRDNAKNTVYLQMNSLKPEDTAVYYCNAEGRWSSFTQRMDYWGQGTQVTVSS", "polyreactivity (PSR sort gate)": "low polyreactivity"}, {"sequence": "QVQLVESGGGLVQAGGSLRLSCAASGSTFGPYAMGWYRPAPGKERELVAAIRSGGSTYYADSVKGRFTISRDNAKNTVYLQMNSLKPEDTAVYYCAAGGHHSYTYWIYYYWGQGTQVTVSS", "polyreactivity (PSR sort gate)": "low polyreactivity"}, {"sequence": "QVQLVESGGGLVQAGGSLRLSCAASGSTFGPYAMGWYRQAPGKEREFVAGISKSTSSTYYADSVKGRFTISRDNAKNTVYLQMNSLKPEDTAVYYCAAQGGRNRGYRYYWGQGTQVTVSS", "polyreactivity (PSR sort gate)": "high polyreactivity"}, {"sequence": "QVQLVESGGGLVQAGGSLRLSCAASGSTFGPYAMGWYRQAPGKERELVATITRNGGSTYYADSVKGRFTISRDNAKNTVYLQMNSLKPEDTAVYYCNAEGRWSSFTQRMDYWGQGTQVTVSS", "polyreactivity (PSR sort gate)": "low polyreactivity"}, {"sequence": "QVQLVESGGGLVQAGGSLRLSCAASGSTFGPYAMGWYRQAPGQERELVATITRNGGSTYYADSVKGRFTISRDNAKNTVYLQMNSLKPEDTAVYYCAARLYYEIYDYGAVRIGYDYWGQGTQVTVSS", "polyreactivity (PSR sort gate)": "low polyreactivity"}, {"sequence": "QVQLVESGGGLVQAGGSLRLSCAASGSTFGPYTMGWKRPAPGKERELVATISSGGSTYYADSVKGRFTISRDNAKNTVYLQLNCLKPEDTAVYSCAKDFWYRSYDYWGQGTQVTLSS", "polyreactivity (PSR sort gate)": "low polyreactivity"}, {"sequence": "QVQLVESGGGLVQAGGSLRLSCAASGSTFGPYVMGRYRQAPGKDRELVAAITRSGGRTYYADSVKGRFTISRDNAKNTVYLQMNSLKPEDTAVYYCAAPPSEATSQRYKYNYWGQGTQVTVSS", "polyreactivity (PSR sort gate)": "high polyreactivity"}, {"sequence": "QVQLVESGGGLVQAGGSLRLSCAASGSTFGPYVMGWYRQAPGKERELVATITSDDSTNYADSVKGRFTISRDNAKNTVYLQMNSLKPEDTAVYYCAVERDYWTKASYYWGQGTQVTVSS", "polyreactivity (PSR sort gate)": "low polyreactivity"}, {"sequence": "QVQLVESGGGLVQAGGSLRLSCAASGSTFGQYVMAWYRQAPGKERELVAAISSGDSTNYADSVKGRFTISRDNAKNTVYLQMNSLKPEDTAVYYCAAARRPTYWPVYPYFGYEYWGQGTQVTVSS", "polyreactivity (PSR sort gate)": "low polyreactivity"}, {"sequence": "QVQLVESGGGLVQAGGSLRLSCAASGSTFGRNAMGWYRQAPGKERELVAAISYSGGSTYYADSVKGRFTISRDNAKNTVYLQMNSLKPEDTAVYYCNTVPKPWYSWKYAYDYWGQGTQVTVSS", "polyreactivity (PSR sort gate)": "high polyreactivity"}, {"sequence": "QVQLVESGGGLVQAGGSLRLSCAASGSTFGRNAMGWYRQAPGKERELVAASNWSDGSTHYADSVKGRFTISRDNAKNTVYLQMNSLKPEDTAVYYCAADAWSWPVDYNYWGQGTQVTVSS", "polyreactivity (PSR sort gate)": "low polyreactivity"}, {"sequence": "QVQLVESGGGLVQAGGSLRLSCAASGSTFGRNAMGWYRQAPGKERELVASISSGGSTYYADSVKGRFTISRDNAKNTVYLQMNSLKPEDTAVYYCARRAYQNWYNYWGQGTQVTVSS", "polyreactivity (PSR sort gate)": "high polyreactivity"}, {"sequence": "QVQLVESGGGLVQAGGSLRLSCAASGSTFGRYAMGCYIQAPGKERELVAAITRSGGRTYYADSVKGRFTISRDNAKNTVYLQMNSLIPEDTAVYYCAARSRRRFDWGQGTQVTVSS", "polyreactivity (PSR sort gate)": "high polyreactivity"}, {"sequence": "QVQLVESGGGLVQAGGSLRLSCAASGSTFGRYAMGWYGQAPGKERELVAAISASGASTYYADSVKGRFTISRDNAKNTVYLQMNSLKPEDTAVYYSNAPYYFAGKPWGSWRYGYWGQGTQVTVSS", "polyreactivity (PSR sort gate)": "low polyreactivity"}, {"sequence": "QVQLVESGGGLVQAGGSLRLSCAASGSTFGRYAMGWYRQAPGKEREFVAGITGRGGSTYYADSVKGRFTISRDNAKNTVYLQMNSLKPEDTAVYYCAAGYRVGYLRAGDYWGQGTQVTVSS", "polyreactivity (PSR sort gate)": "high polyreactivity"}, {"sequence": "QVQLVESGGGLVQAGGSLRLSCAASGSTFGRYAMGWYRQAPGKERELVAAINSRGGRKYYADSVKGRFTISRDNAKNTVYLQMNSLIPEDTAVYYCAAPTGPNGYYSDRGDSWGQGTQLTVSS", "polyreactivity (PSR sort gate)": "low polyreactivity"}, {"sequence": "QVQLVESGGGLVQAGGSLRLSCAASGSTFGRYAMGWYRQAPGKERELVAAISESDGSTYYADSVKGRFTISRDNAKNTVYLQMNSLKPEDTAVYYCAAEWTHYWWYQYDYWGQGTQVTVSS", "polyreactivity (PSR sort gate)": "high polyreactivity"}, {"sequence": "QVQLVESGGGLVQAGGSLRLSCAASGSTFGRYDMGSYRQAPGKERELVAAISRSGGGTYYADSVKGRFTISRDNAKNTVYLQMNSLKPEDTAVYYCAADYRDYPDSAYYYWGQGTQVTVSS", "polyreactivity (PSR sort gate)": "low polyreactivity"}, {"sequence": "QVQLVESGGGLVQAGGSLRLSCAASGSTFGRYVMGWYRQAPGKEWELVAAISKNAGSTYYADSVKGRFTISRDNAKNTVYLQMNSLKPEDTAVYYCAADWRTKGYDSLGQGTQVTVSS", "polyreactivity (PSR sort gate)": "high polyreactivity"}, {"sequence": "QVQLVESGGGLVQAGGSLRLSCAASGSTFGSNAMGWYRQAPGKERELVAAIDANGGSTYYADSVKGRFTISRDNAKNTVYLQMNSLKPEDTAVYYCAAAGYWYYYVPNDYWGQGTQVTVSS", "polyreactivity (PSR sort gate)": "low polyreactivity"}, {"sequence": "QVQLVESGGGLVQAGGSLRLSCAASGSTFGSNAMGWYRQAPGKERELVAAITGGDVSTYYADSVKGRFTISRDNAKNTVYLQMNSLKPEDTAVYYCNAEYARPAMDYWGQGTQVTVSS", "polyreactivity (PSR sort gate)": "low polyreactivity"}, {"sequence": "QVQLVESGGGLVQAGGSLRLSCAASGSTFGSYAMGWYIQAPGKERELVAAINWSGGITYYADSVKGRFTISRDNAKNTVYLQMNSLKPEDTAVYYCAADTRTYYYGSTYDYEYWGQGTQVTVSS", "polyreactivity (PSR sort gate)": "low polyreactivity"}, {"sequence": "QVQLVESGGGLVQAGGSLRLSCAASGSTFGSYAMGWYRQAPGKERELVAAISRGGGSTYYADSVKGRFTISRDNAKNTVYLQMNSLKPEDTAVYYCAATAQNDSRYGSRYYYWGQGTQVTVSS", "polyreactivity (PSR sort gate)": "high polyreactivity"}, {"sequence": "QVQLVESGGGLVQAGGSLRLSCAASGSTFGSYAMGWYRQAPGKERELVAGISWSGGRTYYADSVKGRFTISRDNAKNTVYLQMNSLKPEDTAVFYCALDTGYYYARYNFWGQGTKVTVSS", "polyreactivity (PSR sort gate)": "low polyreactivity"}]}]}
